Target: Trop-2 (on Trop-2-expressing HCC1806 cells) (human) (UniProt P09758)
Assay: cell-based or functional assay

UniProt P09758, sequence (P09758 27-323): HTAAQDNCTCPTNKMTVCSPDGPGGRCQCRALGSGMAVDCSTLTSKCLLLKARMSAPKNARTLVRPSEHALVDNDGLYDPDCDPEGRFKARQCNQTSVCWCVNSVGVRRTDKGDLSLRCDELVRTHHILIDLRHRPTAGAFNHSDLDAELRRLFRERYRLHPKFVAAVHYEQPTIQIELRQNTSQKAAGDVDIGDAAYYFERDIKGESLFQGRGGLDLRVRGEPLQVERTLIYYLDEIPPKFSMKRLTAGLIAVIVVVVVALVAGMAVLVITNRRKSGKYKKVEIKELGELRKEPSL

Specific lysis of HCC1806 cells relative to mock-transfected NK-92MI (flow cytometry, E:T 3:1, 3 h): 2 fold
Substance: hRS7-CAR, a human Trop-2-targeting CAR (SPCD8α-VKhRS7-(GGGGS)3-VHhRS7-HingeCD8α-TMCD8α-ICD4-1BB-ICDCD3ζ) (receptor)
Cytotoxicity by flow cytometry (percent of HCC1806 cells killed, E:T 3:1, 3 h): 42%
